Literature values as cited in PMC4819957.

Target: Pex3 (Homo sapiens) (UniProt P56589)
Sequence of UniProt P56589 (P56589 whole entry): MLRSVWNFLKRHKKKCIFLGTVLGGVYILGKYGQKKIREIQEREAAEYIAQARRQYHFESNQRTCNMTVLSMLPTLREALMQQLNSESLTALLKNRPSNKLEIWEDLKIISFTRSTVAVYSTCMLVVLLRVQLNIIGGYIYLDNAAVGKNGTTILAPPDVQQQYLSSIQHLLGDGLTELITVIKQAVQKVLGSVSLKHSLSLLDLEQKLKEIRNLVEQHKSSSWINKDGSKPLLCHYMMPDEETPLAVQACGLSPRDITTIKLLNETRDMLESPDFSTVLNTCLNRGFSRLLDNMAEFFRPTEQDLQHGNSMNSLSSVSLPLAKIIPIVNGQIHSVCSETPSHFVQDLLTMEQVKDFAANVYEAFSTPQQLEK

Substance: Pex19 (from UniProt P40855)
- Kd: < 10 nM
